Test results taken from patent publication US20240225985A1, “BRIGHTENING COMPOSITIONS AND METHODS OF USE” (Alastin Skincare, Inc., priority 2021, published 2024).
“Also recorded” adds a separate entry of the source.

How the values were obtained:
[1] = tested on: melanocytes; test: Gene expression study (RNA sequencing) in PGE2-induced melanocytes; assay type: cell-based, human; conditions: melanocytes induced with 10 uM PGE2; 24 hours of compound exposure
Experimental: Four cell types associated with pigmentation pathways—melanocytes, keratinocytes, fibroblasts and endothelial (HUVEC) cells—were analyzed for gene expression.
To simulate the UV stimulatory pigmentation pathway process, melanocytes were pre-treated with PGE2, a normal direct consequence of UV light exposure usually emanating from exposed keratinocytes. After the 48 hour attachment culture, these melanocytes were induced with 10 uM PGE2 in melanocyte media for 24 hrs. The four primary human adult dermal cell lines were cultured and plated in well plates in triplicate and then treated with 11 different compound treatments (plus DMSO control). After 48 hours of attachment culture, the remaining fibroblasts, HUVECs and keratinocytes were treated with the test compounds listed in Table 8.
After 24 hours of compound exposure, RNA lysate preparation was carried out and samples were shipped to MedGenome for RNA extraction, library construction and sequencing to 25M paired end 100 bp reads per sample. Library prep and sequencing was completed at MedGenome.

[2] = tested on: melanocytes; test: In vitro melanocyte comparative analysis via absorbance readings (melanin production); assay type: cell-based; conditions: for Absorbance 405 nm / Absorbance 490 nm / Absorbance 492 nm: 4 days, control = 0.0 row
Experimental: Melanocytes were cultured in 6-well plates containing growth media. Once confluent, 2 concentrations of each of the 10 compounds were added to the cells in triplicate wells for 4 days. There were a total of eleven 6-well plates, one for each compound treatment and one for the vehicle control. Absorbance readings were taken on the lysates prepared for each well of the 6-well plates, normalizing for cells counts. The model was initially tested for accuracy and validated using hexapeptide-12 in view of strong gene expression results with melanocyte cell line in the first study—confirmation of decreased stimulation was obtained. Additional validation was carried out using MSH addition to media to confirm increased stimulation of melanin production. The following compounds used in this study are seen in Table 9.

[3] = tested on: endothelial cells; test: Gene expression of PMEL, tyrosinase genes, MC1/4R, EDNRB, MITF, ERK1/2, JNK, AKT1; assay type: cell-based; conditions: after treatment of endothelial cells
Text: The methods similar to Examples 3-4 were used to measure expression of PMEL, tyrosinase genes, MC1/4R, EDNRB, MITF, ERK1/2, JNK, and ANKT1.
FIGS. 10A-10D illustrates the expression of PMEL (FIG. 10A), Tyrosinase genes (FIG. 10B), MC1/4R (FIG. 10C), and EDNRB (FIG. 10D) after treatment of endothelial cells with lactoferrin (Lacto), peptide derived from lactoferrin (TCV), hexapeptide-12 (Hex12), tripeptide-1 and hexapeptide-12 (TriHex), hexapeptide-11 (Hex11), tranexamic acid (Tran acid) octapeptide (Octa), phosphatidylserine (phos), Cannabidiol (CBD), and all (total).
MITF is regulated by phosphorylation. Specifically, the MAPK and Akt pathways are known to phosphorylate MITF at certain sites. FIGS. 12A-12C illustrate the expression of ERK1/2 (MAPK3/MAPK1) (FIG. 12A), JNK (FIG. 12B), AKT1 (FIG. 12C) after treatment of endothelial cells with lactoferrin (Lacto), peptide derived from lactoferrin (TCV), hexapeptide-12 (Hex12), tripeptide-1 and hexapeptide-12 (TriHex), hexapeptide-11 (Hex11), octapeptide (Octa), phosphatidylserine (phos), Cannabidiol (CBD), and all (total).

[4] = tested on: hTERT-immortalized dermal melanocytes; test: Melanocyte assay, daily inspection of cell morphology; assay type: cell-based, human; conditions: both concentrations of Table 11; five-day dosing period
Experimental: Once the melanocytes were 100% confluent in 6-well plates, the melanocyte growth media was removed and the melanocytes were treated with media containing the above compounds; duplicate wells for each compound/concentration listed above. The duplicate vehicle control wells were fed melanocyte growth media only or melanocyte growth media with DMSO (10 uL per 10 mL melanocyte growth media).
The cells were fed the appropriate media for the next 5 days. Each day, the cells were inspected for morphology.

[5] = higher concentration (Lactoferrin 1000, HEX-11 200, Phosphatidylserine 500, Silymarin 20, Sesamol 100, Tranexamic Acid 1000, HEX-12 4.9, ug/mL or ug/uL; Phytoene/Phytofluene 5.00%)
[6] = lower concentration (Lactoferrin 500, HEX-11 100, Phosphatidylserine 250, Silymarin 10, Sesamol 50, Tranexamic Acid 500, HEX-12 2.9, ug/mL or ug/uL; Phytoene/Phytofluene 2.50%)

B1: Lactoferrin: 80 kDa iron binding glycoprotein of the transferrin family (protein)
chain: APRKNVRWCTISQPEWFKCRRWQWRMKKLGAPSITCVRRAFALECIRAIAEKKADAVTLDGGMVFEACRDPYKLRPVAAEIYGTKESPQTHYYAVAVVKKGSNFQLDQLQGRKSCHTGLGRSAGWIIPMGILRPYLSWTESLEPLQGAVAKFFSASCVPCIDRQAYPNLCQLCKGEGENQCACSSREPYFGYSGAFKCLQDGAGDVAFVKETTVFENLPEKADRDQYELLCLNNSRAPVDAFKECHLAQVPSHAVVARSVDGKEDLIWKLLSKAQEKFGKNKSRSFQLFGSPPGQRDLLFKDSALGFLRIPSKVDSALYLGSRYLTTLKNLRETAEEVKARYTRVVWCAVGPEEQKKCQQWSQQSGQNVTCATASTTDDCIVLVLKGEADALNLDGGYIYTAGKCGLVPVLAENRKSSKHSSLDCVLRPTEGYLAVAVVKKANEGLTWNSLKDKKSCHTAVDRTAGWNIPMGLIVNQTGSCAFDEFFSQSCAPGADPKSRLCALCAGDDQGLDKCVPNSKEKYYGYTGAFRCLAEDVGDVAFVKNDTVWENTNGESTADWAKNLNREDFRLLCLDGTRKPVTEAQSCHLAVAPNHAVVSRSDRAAHVKQVLLHQQALFGKNGKNCPDKFCLFKSETKNLLFNDNTECLAKLGGRPTYEEYLGTEYVTAIANLKKCSTSPLLEACAFLTR
- melanogenic gene activity in melanocytes [1]: particularly dominant in melanogenic activity; also recorded: significant effects on melanogenesis activity
- Absorbance 405 nm [2, 5]: 0.519
- Absorbance 490 nm [2, 5]: 0.312
- Absorbance 492 nm [2, 5]: 0.226
- Absorbance 405 nm [2, 6]: 0.509
- Absorbance 490 nm [2, 6]: 0.334
- Absorbance 492 nm [2, 6]: 0.217
- Regulation of melanogenesis (decreased absorption denoting decreased melanin formation) ([2]; melanocytes, summary of Table 10): Regulation of melanogenesis was observed
- melanogenic activity (expression of PMEL, tyrosinase genes, MC1/4R, EDNRB, kinases) [3]: robust melanogenic activity; also recorded: significant effects on such melanogenic activity
- melanocyte morphology / survival on daily inspection [4]: developed a circular morphology rather the normal webbed morphology 24 hour post-initial dosing; also recorded: at 48 hours post-initial dosing, the melanocytes returned to normal morphology
